Laboratory results from paper PMC9122904, “Insights into the client protein release mechanism of the ATP-independent chaperone Spy” (Nature Communications, 2022).

How the values were obtained:
Test in all cases: BLI; Octet RED96; client biotinylated and loaded on streptavidin sensors; Spy or Spy variant in solution at 0.25, 0.5, 1, 1.5 and 2 μM; 40 mM HEPES, 150 mM NaCl, pH 7.5; Kd calculated as koff/kon
Conditions in all cases: both partners purified
Spy_(29-124) R43D = biological target: T1, Spy_(29-124) R43D (UniProt P77754 52-147, R43D)
T1 construct: source: E. coli BL21 (DE3), purified (Ni-NTA, cation exchange, SEC); not shown: His6, N-terminal, cleaved; SUMO, N-terminal, cleaved
T1 sequence (looked up): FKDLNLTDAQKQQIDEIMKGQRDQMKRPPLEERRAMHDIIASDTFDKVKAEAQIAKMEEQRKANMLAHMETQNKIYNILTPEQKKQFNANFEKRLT

Spy_(29-124) R50D = biological target: T2, Spy_(29-124) R50D (UniProt P77754 52-147, R50D)
T2 construct: source: E. coli BL21 (DE3), purified (Ni-NTA, cation exchange, SEC); not shown: His6, N-terminal, cleaved; SUMO, N-terminal, cleaved
T2 sequence (looked up): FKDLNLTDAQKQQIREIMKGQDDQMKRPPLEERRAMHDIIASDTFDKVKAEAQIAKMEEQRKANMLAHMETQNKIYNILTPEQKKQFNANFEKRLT

Spy_(29-124) K54D R55D = biological target: T3, Spy_(29-124) K54D R55D (UniProt P77754 52-147, K54D | R55D)
T3 construct: source: E. coli BL21 (DE3), purified (Ni-NTA, cation exchange, SEC); not shown: His6, N-terminal, cleaved; SUMO, N-terminal, cleaved
T3 sequence (looked up): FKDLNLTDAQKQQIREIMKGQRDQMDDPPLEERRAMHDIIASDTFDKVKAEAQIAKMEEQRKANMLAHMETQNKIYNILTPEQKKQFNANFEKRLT

Spy_(29-124) R61D R62D = biological target: T4, Spy_(29-124) R61D R62D (UniProt P77754 52-147, R61D | R62D)
T4 construct: source: E. coli BL21 (DE3), purified (Ni-NTA, cation exchange, SEC); not shown: His6, N-terminal, cleaved; SUMO, N-terminal, cleaved
T4 sequence (looked up): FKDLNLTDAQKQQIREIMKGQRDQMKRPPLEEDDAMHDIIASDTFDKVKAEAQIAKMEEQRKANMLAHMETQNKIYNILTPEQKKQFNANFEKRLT

Spy_(29-124) R89D = biological target: T5, Spy_(29-124) R89D (UniProt P77754 52-147, R89D)
T5 construct: source: E. coli BL21 (DE3), purified (Ni-NTA, cation exchange, SEC); not shown: His6, N-terminal, cleaved; SUMO, N-terminal, cleaved
T5 sequence (looked up): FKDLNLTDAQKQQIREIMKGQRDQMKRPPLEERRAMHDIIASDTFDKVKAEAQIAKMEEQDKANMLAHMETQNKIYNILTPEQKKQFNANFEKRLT

Spy_(29-124) H96D = biological target: T6, Spy_(29-124) H96D (UniProt P77754 52-147, H96D)
T6 construct: source: E. coli BL21 (DE3), purified (Ni-NTA, cation exchange, SEC); not shown: His6, N-terminal, cleaved; SUMO, N-terminal, cleaved
T6 sequence (looked up): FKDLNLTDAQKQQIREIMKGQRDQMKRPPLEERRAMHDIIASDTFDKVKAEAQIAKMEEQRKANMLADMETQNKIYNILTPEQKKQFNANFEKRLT

Spy_(29-124) K121D R122D = biological target: T7, Spy_(29-124) K121D R122D (UniProt P77754 52-147, K121D | R122D)
T7 construct: source: E. coli BL21 (DE3), purified (Ni-NTA, cation exchange, SEC); not shown: His6, N-terminal, cleaved; SUMO, N-terminal, cleaved
T7 sequence (looked up): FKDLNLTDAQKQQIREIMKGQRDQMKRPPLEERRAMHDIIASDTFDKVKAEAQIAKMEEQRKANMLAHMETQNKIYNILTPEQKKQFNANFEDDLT

Spy_(21-127) = biological target: T8, Spy_(21-127) (UniProt P77754 44-150)
T8 construct: Spy chaperone, residues 21-127; source: E. coli BL21 (DE3), purified (Ni-NTA, cation exchange, SEC); not shown: His6, N-terminal, cleaved; SUMO, N-terminal, cleaved
T8 sequence (looked up): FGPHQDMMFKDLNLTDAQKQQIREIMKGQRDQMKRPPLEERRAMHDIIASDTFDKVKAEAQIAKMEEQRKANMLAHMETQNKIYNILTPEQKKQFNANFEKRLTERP
Outline: (§1)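 Client proteins were biotinylated with EZ-link NHS-biotin at a 1:1 molar ratio, loaded onto streptavidin sensors, and measured by biolayer interferometry on an Octet RED96. The loaded sensors were dipped into 40 mM HEPES, 150 mM NaCl, pH 7.5 holding the analyte protein at 0.25, 0.5, 1, 1.5 or 2 μM, then moved to buffer without it. Fitting the wavelength-shift association and dissociation curves in SigmaPlot 12.0 gave the observed association rate and koff, kon was taken from the observed rate plotted against analyte concentration, and Kd was calculated as koff/kon.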

Spy_(21-124) = biological target: T9, Spy_(21-124) (UniProt P77754 44-147)
T9 construct: source: E. coli BL21 (DE3), purified (Ni-NTA, cation exchange, SEC); not shown: His6, N-terminal, cleaved; SUMO, N-terminal, cleaved
T9 sequence (looked up): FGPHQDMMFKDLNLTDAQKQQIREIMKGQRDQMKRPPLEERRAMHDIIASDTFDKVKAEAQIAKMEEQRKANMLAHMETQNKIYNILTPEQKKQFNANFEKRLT
Outline: as §1

- Kd (Spy_(29-124) R43D): 3.07 µM
- Kd (Spy_(29-124) R50D): 2.68 µM
- Kd (Spy_(29-124) K54D R55D): 1.9 µM
- Kd (Spy_(29-124) R61D R62D): 3.54 µM
- Kd (Spy_(29-124) R89D): 2.61 µM
- Kd (Spy_(29-124) H96D): 1.26 µM
- Kd (Spy_(29-124) K121D R122D): 1.85 µM
- kon (Spy_(21-127)): 258000 M⁻¹ s⁻¹
- kon (Spy_(21-124)): 267000 M⁻¹ s⁻¹
B1: Im7 H40W L53A I54A (natural protein)
chain: MELKNSISDYTEAEFVQLLKEIEKENVAATDDVLDVLLEWFVKITEHPDGTDAAYYPSDNRDDSPEGIVKEIKEWRAANGKPGFKQG
modifications: biotin (EZ-link NHS-biotin, 1:1 molar ratio of biotin to protein)
notes: Im7 (colicin E7 immunity protein) with H40W L53A I54A; Spy was made with an N-terminal His6-SUMO tag that was cleaved; also called Im7AAW; partially folded client; source: purified by a similar procedure to Spy
